The record followed here is FireProtDB (doi:10.1021/bi991296s).

For this data set the following is noted: Escherichia coli (strain K12), pH 7.8, 25 °C, Urea, transition: 4, whole UniProt chain shown.
Where [1] appears, read: SAXS, Potassium phosphate 10 mM.
Where [2] appears, read: SEC, Potassium phosphate 100 mM.

Values joined by “and” are separate entries in the source; they are usually repeats but may differ in a detail not shown here. Equal values may be shown once.

B1: Tryptophan synthase alpha chain wild type, P0A877 (protein)
chain: MERYESLFAQLKERKEGAFVPFVTLGDPGIEQSLKIIDTLIEAGADALELGIPFSDPLADGPTIQNATLRAFAAGVTPAQCFEMLALIRQKHPTIPIGLLMYANLVFNKGIDEFYAQCEKVGVDSVLVADVPVEESAPFRQAALRHNVAPIFICPPNADDDLLRQIASYGRGYTYLLSRAGVTGAENRAALPLNHLVAKLKEYNAAPPLQGFGISAPDQVKAAIDAGAAGAISGSAIVKIIEQHINEPEKMLAALKVFVQPMKAATRS
Turning to B1, the denaturant m value reads like this: (CD, Potassium phosphate 10 mM) 2.2 kcal/mol/M and 1.1 kcal/mol/M and 0.84 kcal/mol/M; under setting [1], 2 kcal/mol/M and 0.9 kcal/mol/M; under setting [2], 2 kcal/mol/M and 1.2 kcal/mol/M. Moreover, the unfolding free energy runs as follows: (CD, Potassium phosphate 10 mM) 6 kcal/mol and 4.5 kcal/mol and 4.9 kcal/mol; under setting [1], 5.3 kcal/mol and 3.1 kcal/mol; under setting [2], 5.7 kcal/mol and 4.9 kcal/mol.
